Laboratory results reported in publication PMC4459029, “Effects of receptor tyrosine kinase inhibitors on VEGF165a- and VEGF165b-stimulated gene transcription in HEK-293 cells expressing human VEGFR2” (British Journal of Pharmacology, 2015).
Values joined by “and” are separate entries in the source; they are usually repeats but may differ in a detail not shown here. Equal entries are not always repeated.

How the values were obtained:
[1] = tested on: basal NFAT-luciferase activity; test: basal NFAT-luciferase production in VEGFR2 NFAT cells; assay type: cell-based, human; conditions: no VEGF; P < 0.05 one way ANOVA
From the text: HEK-293 cells expressing the human VEGFR2 and an NFAT reporter gene were provided by Promega Corporation. The NFAT reporter gene contained an NFAT response element linked via a minimal promoter to the firefly luciferase gene luc2P containing a human sequence enriched in proline (P), glutamic acid (E), serine (S) and threonine (T) protein destabilization sequence (Voon et al., [2005]). VEGFR2 NFAT cells were maintained in DMEM media supplemented with 10% FCS and 0.5% G418 in a humidified 5% CO2/95% air atmosphere at 37°C.
VEGFR2 NFAT cells were seeded in a T75 flask at 5 × 10^6 cells per flask using DMEM +10%FCS and incubated at 37°C in a 5% CO2/95% air atmosphere for 3 days until the cells were 100% confluent. On the fourth day, cells were washed with PBS and detached using 3 mL Versene® (ETDA 0.02% in PBS). Once cells had detached, 6 mL of DMEM +0.1%BSA was added and the cells were counted using a haemocytometer. […] After the 5 h incubation, 100 μL ONE-Glo Luciferase Assay reagent was added to each well and luminescence was measured according to the manufacturer's instructions on a Topcount platereader (Perkin Elmer, Llantrisant, UK).

human VEGFR2 = biological target: T1, human VEGFR2 (Homo sapiens, UniProt P35968); test: VEGFR2-stimulated NFAT-luciferase reporter gene activity in HEK-293 cells; assay type: cell-based
T1 construct: host or cells: HEK-293
T1 sequence (P35968 20-1356): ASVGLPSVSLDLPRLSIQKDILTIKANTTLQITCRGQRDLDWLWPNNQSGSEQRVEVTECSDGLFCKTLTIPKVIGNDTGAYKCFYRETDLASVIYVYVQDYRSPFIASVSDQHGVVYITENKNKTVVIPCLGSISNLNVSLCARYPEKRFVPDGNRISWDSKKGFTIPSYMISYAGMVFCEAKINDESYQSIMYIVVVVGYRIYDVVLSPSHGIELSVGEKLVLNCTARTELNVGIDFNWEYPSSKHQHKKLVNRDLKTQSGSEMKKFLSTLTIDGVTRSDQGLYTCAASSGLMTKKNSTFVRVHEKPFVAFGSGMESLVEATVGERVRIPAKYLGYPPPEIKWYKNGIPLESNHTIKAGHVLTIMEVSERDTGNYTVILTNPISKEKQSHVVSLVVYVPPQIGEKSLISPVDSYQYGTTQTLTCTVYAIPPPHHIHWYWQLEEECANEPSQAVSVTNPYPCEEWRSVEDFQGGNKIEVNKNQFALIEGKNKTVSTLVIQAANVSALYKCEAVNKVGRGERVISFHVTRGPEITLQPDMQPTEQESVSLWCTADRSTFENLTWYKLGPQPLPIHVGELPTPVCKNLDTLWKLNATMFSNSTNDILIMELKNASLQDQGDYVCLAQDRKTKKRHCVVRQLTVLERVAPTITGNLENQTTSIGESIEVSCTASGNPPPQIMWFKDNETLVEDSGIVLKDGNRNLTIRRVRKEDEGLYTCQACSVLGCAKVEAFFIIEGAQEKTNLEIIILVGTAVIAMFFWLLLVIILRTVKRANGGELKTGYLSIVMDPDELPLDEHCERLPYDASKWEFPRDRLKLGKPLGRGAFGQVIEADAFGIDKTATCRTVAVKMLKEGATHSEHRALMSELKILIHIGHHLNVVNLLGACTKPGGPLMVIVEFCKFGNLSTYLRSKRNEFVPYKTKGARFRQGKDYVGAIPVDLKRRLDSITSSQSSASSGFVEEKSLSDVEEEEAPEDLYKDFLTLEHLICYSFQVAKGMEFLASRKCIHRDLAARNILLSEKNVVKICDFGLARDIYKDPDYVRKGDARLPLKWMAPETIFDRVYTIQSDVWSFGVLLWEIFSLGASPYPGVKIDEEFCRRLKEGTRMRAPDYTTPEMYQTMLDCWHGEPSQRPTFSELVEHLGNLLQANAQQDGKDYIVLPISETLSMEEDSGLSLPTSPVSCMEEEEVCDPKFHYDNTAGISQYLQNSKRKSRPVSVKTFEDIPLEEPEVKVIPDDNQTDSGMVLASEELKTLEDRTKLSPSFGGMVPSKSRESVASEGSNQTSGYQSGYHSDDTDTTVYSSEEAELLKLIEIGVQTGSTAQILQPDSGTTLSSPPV
Protocol: HEK-293 cells expressing the human VEGFR2 and an NFAT reporter gene were provided by Promega Corporation.
On the fourth day, cells were washed with PBS and detached using 3 mL Versene® (ETDA 0.02% in PBS). Once cells had detached, 6 mL of DMEM +0.1%BSA was added and the cells were counted using a haemocytometer. Cells were centrifuged at 200× g for 5 min, resuspended in DMEM +0.1%BSA and seeded at a density of 4 × 10^4 cells per well in 80 μL DMEM +0.1%BSA in white-sided, clear flat-bottomed 96-well plates (Greiner, Stonehouse, UK), which had been coated with 0.01 mg·mL^−1 poly-D-lysine in PBS for 30 min and washed with DMEM. […] After the 5 h incubation, 100 μL ONE-Glo Luciferase Assay reagent was added to each well and luminescence was measured according to the manufacturer's instructions on a Topcount platereader (Perkin Elmer, Llantrisant, UK).
All data were fitted using non-linear regression in Prism 6 (GraphPad Software, San Diego, CA, USA).
A comparison of the extra sum of squares that resulted from the analysis with separate EC50 or Emax values (over that with one of the parameters shared) using the F-test (Prism 6) then allowed for statistical analysis of the difference between EC50 or Emax values. […]

COc1cc2c(Oc3ccc4[nH]c(C)cc4c3F)ncnc2cc1OCCCN1CCCC1 [Cediranib]
concentration giving significant inhibition of basal NFAT-luciferase response [1]: above 10 nM

B1: VEGF165b: VEGF-A exon 8 splice variant, lower-efficacy partial agonist at VEGFR2, from R&D systems (protein)
chain: APMAEGGGQNHHEVVKFMDVYQRSYCHPIETLVDIFQEYPDEIEYIFKPSCVPLMRCGGCCNDEGLECVPTEESNITMQIMRIKPHQGQHIGEMSFLQHNKCECRPKKDRARQENPCGPCSERRKHLFVQDPQTCKCSCKNTDSRCKARQLELNERTCRSLTRKD
modifications: disulfide-linked homodimer; natural exon 8b splice isoform (VEGF165b); limits are the mature chain after removal of the 26-residue signal pep
−Log EC50 (human VEGFR2; agonist-stimulated NFAT-luciferase response, 5 h incubation): 9.21 ± 0.08 | pKA at VEGFR2 (operational model) (human VEGFR2; partial agonist fit): 8.83 and 8.8
